Reference: US11826422B2, “Methods and compositions for adaptive immune modulation” (THE BOARD OF REGENTS OF THE UNIVERSITY OF TEXAS SYSTEM, priority 2016, dated 2023)

Columns and labels:
[1] = cited from earlier work
total IgE = assay: Serum total IgE by sandwich ELISA, OVA sensitization and aerosol challenge mouse model; type: in vivo; set-up: unit not given here; conditions: mean±SEM
Description: (§1) Female BALB/c mice (6-10 weeks of age) were purchased from Charles River, Wilmington, Mass., and housed five mice per cage in a 12/12 h light/dark cycle with food and water available ad libitum. All experimental procedures were approved by the institutional animal ethics committee (IAUCUC) at the Institute of Biosciences and Technology, Texas A&M HSC.
(§2) Synthetic TLR ligands (referred to as O/P) were purchased from InvivoGen (San Diego, Calif.), reconstituted in endotoxin-free water, and suspended in 8 ml sterile PBS at the following concentrations: Pam2 10 μg/ml; ODN2395 20 μg/ml. Mice were sensitized to ovalbumin (OVA) ([…], Grade V, 2.25 mg alum in saline, pH7.4; Sigma, St. Louis, Mo.) administered by intraperitoneal (IP) injection once weekly for one or two weeks. Sensitized mice were exposed for 30 min to an aerosol of 2.5% (wt/vol) ovalbumin in 0.9% saline, via Aerotech II nebulizer (CIS US, Inc.) combined with or without O/P in the presence of room air supplemented with 5% CO2 to promote maximal ventilation and homogeneous aerosol exposure throughout the lungs.
Serum immunoglobulin concentrations were determined by standard sandwich ELISA technique using 96 well Easywash high binding flat bottom plates (Corning). All reagents were diluted in assay diluent (TBS+0.1% BSA [Calbiochem]) except for the coating reagent, which was diluted in TBS only. All wells were washed with wash buffer (TBS+0.1% Tween-20) 3×s, 5 minutes per wash, and all samples developed by adding TMB Substrate Reagent (BD Biosciences) for 30 minutes in the dark. Reactions were stopped by addition of 2N H2SO4 and absorbance read at 450 nm. All readings used in the data fell within the linear portion of the standard curves.
The same protocol was followed for determining total IgE using the following amounts of reagents: 2 μg/mL goat anti-mouse IgE (AbD Serotec, STAR166), 2 μg/mL Biotin Rat Anti-Mouse IgE (BD Biosciences, clone R35-118). For OVA IgG1, the following amounts of reagents were used: 100 μg/mL OVA (Sigma) and 0.1 μg/mL Biotin Rat Anti-Mouse IgG1 (eBioscience, clone M1-14D12). For total IgG1: 2 μg/mL Rat Anti-Mouse IgG1 (BioLegend, clone RMG1-1), 0.05 μg/mL Biotin Rat Anti-Mouse IgG1 (eBioscience, clone M1-14D12). For IgG2a: 2 μg/mL Rat Anti-Mouse IgG2a (BioLegend, clone RMG2a-62) and 0.05 μg/mL Biotin Goat Anti-Mouse IgG2a (AbD Serotec, 108008). For total IgG: 2 μg/mL Goat Anti-Mouse IgG (AbD Serotec, 103001) and 0.025 μg/mL Biotin Sheep Anti-Mouse IgG (AbD Serotec, AAC10B).

IgG2a = assay: Serum IgG2a by sandwich ELISA, OVA model; type: in vivo, mouse; conditions: FIG. 2; aerosol 6×, Group 6; mean±SEM
Description: as §1, §2
(§3) Serum immunoglobulin concentrations were determined by standard sandwich ELISA technique using 96 well Easywash high binding flat bottom plates (Corning). […] Reactions were stopped by addition of 2N H2SO4 and absorbance read at 450 nm. All readings used in the data fell within the linear portion of the standard curves. […]

eosinophils (EOS) in BAL = assay: BAL total and differential cell counts (Wright-Giemsa), OVA model; type: in vivo, mouse; conditions: FIG. 3B; sensitization optimization, Group 8: two IP OVA/alum, aerosol two times/week
Description: as §2
BAL was obtained by instilling and withdrawing two, 1 ml aliquots of PBS via trachea cannula (luer stub adapter, BD Biosciences). Total leukocyte count was determined with a hemocytometer (Houser Scientific, Horsham, Pa.), and slides for differential cell count were prepared by cytospin of 300 μl of BAL fluid at 500×g for 5 min, followed by Wright-Giemsa staining.

IgG1 = assay: Serum total IgG1 by sandwich ELISA, OVA model; type: in vivo, mouse; conditions: FIG. 2; aerosol 6×, Groups 4 and 6; mean±SEM
Description: as §1, §2, §3

OVA-specific IgE = assay: Serum OVA-specific IgE by sandwich ELISA, OVA sensitization and aerosol challenge mouse model; type: in vivo; conditions: mean±SEM
Description: as §1, §2, §3

CCC(=O)O[C@]1(C(=O)SCF)[C@H](C)C[C@H]2[C@@H]3C[C@H](F)C4=CC(=O)C=C[C@]4(C)[C@@]3(F)[C@@H](O)C[C@@]21C [Fluticasone propionate, S-(fluromethyl)6α,9-difluoro-11β-17-dihydroxy-16α-methyl-3-oxoandrosta-1,4-diene-17β-carbothioate,17-propionate]
solubility in dimethyl sulfoxide and dimethylformamide ([1]; dimethyl sulfoxide, dimethylformamide): freely soluble
solubility in methanol and 95% ethanol ([1]; methanol, 95% ethanol): slightly soluble
solubility in water ([1]; water): practically insoluble

B1: ovalbumin (protein, UniProt P01012 2-386, looked up)
Ovalbumin: GSIGAASMEFCFDVFKELKVHHANENIFYCPIAIMSALAMVYLGAKDSTRTQINKVVRFDKLPGFGDSIEAQCGTSVNVHSSLRDILNQITKPNDVYSFSLASRLYAEERYPILPEYLQCVKELYRGGLEPINFQTAADQARELINSWVESQTNGIIRNVLQPSSVDSQTAMVLVNAIVFKGLWEKAFKDEDTQAMPFRVTEQESKPVQMMYQIGLFRVASMASEKMKILELPFASGTMSMLVLLPDEVSGLEQLESIINFEKLTEWTSSNVMEERKIKVYLPRMKMEEKYNLTSVLMAMGITDVFSSSANLSGISSAESLKISQAVHAAHAEINEAGREVVGSAEAGVDAASVSEEFRADHPFLFCIKHIATNAVLFFGRCVSP
notes: model antigen/allergen, Grade V, Sigma
total IgE (total IgE; FIG. 1B, serum, day 21, aerosol 6× (three times/week for 2 weeks from second immunization), Groups 4 and 6): 17.23±1.82
total IgE (total IgE; FIG. 4, sensitization optimization, Group 5: one IP OVA/alum, OVA aerosol two times/week): 5.36±1.70
total IgE (total IgE; FIG. 4, sensitization optimization, Group 8: two IP OVA/alum, OVA aerosol two times/week): 11.05±2.39
total IgE (total IgE; FIG. 6 top panel, two OVA immunizations, aerosol schedule of FIG. 5A, Groups 2 and 3): 24.66±8.23
IgG2a levels (IgG2a): 25±3
eosinophils (EOS) in BAL (eosinophils (EOS) in BAL): elevated compared to all other groups
IgG1 levels (IgG1): 6.01±0.66
OVA-specific IgE (OVA-specific IgE; FIG. 1C, serum, day 21, aerosol 6×, Groups 4 and 6): 4.36±0.82
OVA-IgE (OVA-specific IgE; FIG. 6 second panel, aerosol schedule of FIG. 5A, Groups 2 and 3): 3.77±1.00
